The results in this text go back to paper PMC10497535, “Identification of the SNARE complex that mediates the fusion of multivesicular bodies with the plasma membrane in exosome secretion” (Journal of Extracellular Vesicles, 2023).

Experiment [1] concerns the target T1, recombinant SN-23, mutant of full-length human SNAP-23 (C79A, C80A, C83A, C85A, C87A, C112A) (human, UniProt O00161 1-211, C79A | C80A | C83A | C85A | C87A | C112A).
T1 construct: SNAP-23, human, full length (residues 1-211) with six cysteines changed to alanine; Cloned into pET28a; source: E. coli BL21 DE3, purified (Nickel-NTA)
T1 sequence (looked up): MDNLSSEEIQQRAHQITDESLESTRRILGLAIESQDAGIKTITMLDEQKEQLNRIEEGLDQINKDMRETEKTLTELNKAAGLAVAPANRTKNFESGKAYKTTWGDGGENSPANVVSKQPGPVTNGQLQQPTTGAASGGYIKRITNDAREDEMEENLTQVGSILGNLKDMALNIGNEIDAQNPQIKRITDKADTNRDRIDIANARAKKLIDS
In words: pull-down; 2 μM GST-VAMP-7 SNARE motif with 3 μM Syx-4 (1-274) and/or 3 μM SN-23 on glutathione Sepharose 4B, 4°C, 5 h; washed with 20 mM Tris-HCl pH 8.0, 150 mM NaCl, 1% Triton X-100; SDS-PAGE. Particulars: both partners purified.

The target in experiment [2] is T2, Syx-4 (residues 1-274, the cytoplasmic fragment) (human, UniProt Q12846 1-274).
T2 construct: syntaxin-4, human, cytoplasmic fragment, residues 1-274; Cloned into pET28a; 'purified as previously described'; also called cytoplasmic fragment of Syx-4; source: E. coli BL21 DE3, purified (Nickel-NTA)
The experiment is described as above. The note with it: both partners purified.

B1: GST-tagged VAMP-7 SNARE motif (residues 125-185) (domain or fragment, human, UniProt P51809 125-185, looked up)
chain: KVMETQAQVDELKGIMVRNIDLVAQRGERLELLIDKTENLVDSSVTFKTTSRNLARAMCMK
notes: pGEX-6p-1; PreScission-cleavable GST tag, not cleaved for the pull-down; also called GST-VAMP-7 SNARE motif; source: E. coli BL21 DE3, purified (glutathione Sepharose 4B, eluted with glutathione); not shown: GST, N-terminal, kept
On to B1, for which the binding result in experiment [1] and in experiment [2] was “binds” each time.
